Data from article PMC3113550.
Values belong to the substance of their own block, whether it stands above or below them.

Assays:
Assay in all cases: AUC
[1] = molecular target: Mouse E-cadherin EC1-2 E11D (mouse)
[2] = molecular target: Mouse E-cadherin EC1-2 P5A (mouse)
[3] = molecular target: Mouse E-cadherin EC1-2 P5A P6A (mouse)
[4] = molecular target: Mouse E-cadherin EC1-2 P5G P6G (mouse)
[5] = molecular target: Mouse E-cadherin EC1-2 P5S P6S (mouse)
[6] = molecular target: Mouse E-cadherin EC1-2 P6A (mouse)
[7] = molecular target: Mouse E-cadherin EC1-2 W2F (mouse)
[8] = molecular target: Mouse E-cadherin EC1-2 wild-type (mouse)
[9] = molecular target: Mouse E-cadherin EC1-2 with one alanine inserted between residues 2 and 3 (mouse)
[10] = molecular target: Mouse E-cadherin EC1-2 with two alanines inserted between residues 2 and 3 (mouse)
[11] = molecular target: Mouse E-cadherin EC2-3 F108W del-TQE (mouse)
[12] = molecular target: Mouse N-cadherin EC1-2 P5A P6A (mouse)
[13] = molecular target: Mouse N-cadherin EC1-2 wild type (mouse)
[14] = molecular target: Mouse cadherin-11 EC1-2 F8A (mouse)
[15] = molecular target: Mouse cadherin-11 EC1-2 wild type (mouse)

Substance: Mouse E-cadherin EC1-2 P5A (domain or fragment)
Kd [2]: 2.9 µM

Substance: Mouse E-cadherin EC1-2 P5G P6G (domain or fragment)
Kd [4]: 2.7 µM

Substance: Mouse E-cadherin EC1-2 P6A (domain or fragment)
Kd [6]: 4.8 µM

Substance: Mouse E-cadherin EC1-2 wild-type (domain or fragment)
Kd [8]: 96.5 µM

Substance: Mouse E-cadherin EC1-2 with one alanine inserted between residues 2 and 3 (domain or fragment)
Kd [9]: 1520 µM

Substance: Mouse E-cadherin EC1-2 with two alanines inserted between residues 2 and 3 (domain or fragment)
Kd [10]: 195 µM

Substance: Mouse N-cadherin EC1-2 P5A P6A (domain or fragment)
Kd [12]: 3.6 µM

Substance: Mouse N-cadherin EC1-2 wild type (domain or fragment)
Kd [13]: 25.8 µM

Substance: Mouse cadherin-11 EC1-2 F8A (domain or fragment)
Kd [14]: 3.7 µM

Second part, the substance after the results:

Kd [1]: 71.2 µM
Substance: Mouse E-cadherin EC1-2 E11D (domain or fragment)

Kd [3]: 3.7 µM
Substance: Mouse E-cadherin EC1-2 P5A P6A (domain or fragment)

Kd [5]: 2.9 µM
Substance: Mouse E-cadherin EC1-2 P5S P6S (domain or fragment)

Kd [7]: 246 µM
Substance: Mouse E-cadherin EC1-2 W2F (domain or fragment)

Kd [11]: 46.5 µM
Substance: Mouse E-cadherin EC2-3 F108W del-TQE (domain or fragment)

Kd [15]: 25.2 µM
Substance: Mouse cadherin-11 EC1-2 wild type (domain or fragment)
